# B1: 6B1 IgG4 (antibody, V domains shown)
# VH: EVQLVESGGGVVQPGRSLRLSCAASGFTFSSYGMHWVRQAPGKGLEWVAVIWYDGSNKYYADSVKGRFTISRDNSKNTLYLQMDSLRAEDTAVYYCGRTLESSLWGQGTLVTVSS
# VL: SSELTQDPAVSVALGQTVRITCQGDSLRSYYASWYQQKPGQAPVLVIYGKNNRPSGIPDRFSGSSSGNTASLTITGAQAEDEADYYCNSRDSSSTHRGVFGGGTKLTVLG
# notes: Whole antibody: human gamma 4 and human lambda constant regions; FITC-labelled in the human tissue study; also called antibody 6B1
# Biological target: T1, recombinant human TGFβ1 (human, UniProt P01137 279-390)
# T1 construct: mature; also called TGFbeta1
# Experiment: A549 cell radioreceptor assay (nM IgG); A549 cell radioreceptor assay; no inhibition up to 400 nM IgG
# Experimental: Aliqouts of ¹²⁵I-TGFβ1 or TGFβ2 (70-90 TBq/mmol; Amersham International) at 20 pM are preincubated with antibody in binding medium at room temperature for 1 h. Duplicate samples of 0.5 ml of TGFβ/antibody mixtures are then added to the cell monlayers and are incubated at 37° C. for 1-2 h. Control wells contain TGFβ only. Unbound TGFβ is removed by washing 4 times with Hank's balanced salt solution containing 0.1% BSA. Cells are solubilised in 0.8 ml 25 mM Tris HCl pH 7.5, 10% glycerol, 1% Triton X-100 at room temperature for 20 min. The contents of each well are removed and ¹²⁵I measured in a gamma counter.
# The ability of 6B1 IgG4 to inhibit binding of TGFβ isoforms to receptors was measured in a radioreceptor assay as described in example 4.
# T1 sequence (P01137 279-390 limits assumed): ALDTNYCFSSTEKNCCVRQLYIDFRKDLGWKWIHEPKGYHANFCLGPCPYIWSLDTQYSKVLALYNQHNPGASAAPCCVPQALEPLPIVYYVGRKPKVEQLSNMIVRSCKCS
binder,measurement,value
B1,IC50,> 400 nM

# From patent publication US20050049403A1 (CAMBRIDGE ANTIBODY TECHNOLOGY, published 2005)
